Measured values: the supplement of paper PMC12855868

B1: library; numbered along this chain (parent)
chain: MAAAGGARLLRAASAVLGGPAGRWLHHAGSRAGSSGLLRNRGPGGSAEASRSLSVSARARSSSEDKITVHFINRDGETLTTKGKVGDSLLDVVVENNLDIDGFGACEGTLACSTCHLIFEDHIYEKLDAITDEENDMLDLAYGLTDRSRLGCQICLTKSMDNMTVRVPETVADARQSIDVGKTS

Variants of: B1
Assay: scaled log2 fold change in cell abundance, elesclomol vs control (0 = silent mean, 1 = nonsense mean) (scaled log2 ratio); higher = higher viability under elesclomol (loss of FDX1 cuproptosis function)
Settings: glucose 10 mM
[1] = with ABC1 FDX1 KO, elesclomol 5 nM, 14 days
[2] = with HEK293T FDX1 KO, elesclomol 40 nM, 11 days
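Note: variant abundance is its share of total variant reads in each endpoint sample, from next-generation sequencing of the integrated ORF PCR-amplified out of genomic DNA.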

Variant	scaled log2 fold change [1]	scaled log2 fold change [2]
MAAAGGARLLRAASAVLGGPAGRWLHHAGSRAGSSGLLRNRGPGGSAEASRSLSVSARARSSSEDKITVHFINRDGETLTTKGKVGDSLLDVVVENNLDIDGFGACEGTLACSTCHLIFEDHIYEKLDAITDEENDMLDLAYGLTDRSRLGCQICLTKVMDNMTVRVPETVADARQSIDVGKTS	0.225	0.738
MAAAGGARLLRAASAVLGGPAGRWLHHAGSRAGSSGLLRNRGPGGSAEASRSLSVSARARSSSEDKITVHFINRDGETLTTKGKVGDSLLDVVVENNLDIDGFGACEGTLACSTCHLIFEDHIYEKLDAITDEENDMLDLAYGLTDRSRLGCQICLTKWMDNMTVRVPETVADARQSIDVGKTS	0.0873	0.215
MAAAGGARLLRAASAVLGGPAGRWLHHAGSRAGSSGLLRNRGPGGSAEASRSLSVSARARSSSEDKITVHFINRDGETLTTKGKVGDSLLDVVVENNLDIDGFGACEGTLACSTCHLIFEDHIYEKLDAITDEENDMLDLAYGLTDRSRLGCQICLTKYMDNMTVRVPETVADARQSIDVGKTS	-0.0652	-0.463
MAAAGGARLLRAASAVLGGPAGRWLHHAGSRAGSSGLLRNRGPGGSAEASRSLSVSARARSSSEDKITVHFINRDGETLTTKGKVGDSLLDVVVENNLDIDGFGACEGTLACSTCHLIFEDHIYEKLDAITDEENDMLDLAYGLTDRSRLGCQICLTKSADNMTVRVPETVADARQSIDVGKTS	0.233	-0.241
MAAAGGARLLRAASAVLGGPAGRWLHHAGSRAGSSGLLRNRGPGGSAEASRSLSVSARARSSSEDKITVHFINRDGETLTTKGKVGDSLLDVVVENNLDIDGFGACEGTLACSTCHLIFEDHIYEKLDAITDEENDMLDLAYGLTDRSRLGCQICLTKSCDNMTVRVPETVADARQSIDVGKTS	-0.675	-0.515
MAAAGGARLLRAASAVLGGPAGRWLHHAGSRAGSSGLLRNRGPGGSAEASRSLSVSARARSSSEDKITVHFINRDGETLTTKGKVGDSLLDVVVENNLDIDGFGACEGTLACSTCHLIFEDHIYEKLDAITDEENDMLDLAYGLTDRSRLGCQICLTKSDDNMTVRVPETVADARQSIDVGKTS	-0.132	0.103
MAAAGGARLLRAASAVLGGPAGRWLHHAGSRAGSSGLLRNRGPGGSAEASRSLSVSARARSSSEDKITVHFINRDGETLTTKGKVGDSLLDVVVENNLDIDGFGACEGTLACSTCHLIFEDHIYEKLDAITDEENDMLDLAYGLTDRSRLGCQICLTKSEDNMTVRVPETVADARQSIDVGKTS	0.143	-0.299
MAAAGGARLLRAASAVLGGPAGRWLHHAGSRAGSSGLLRNRGPGGSAEASRSLSVSARARSSSEDKITVHFINRDGETLTTKGKVGDSLLDVVVENNLDIDGFGACEGTLACSTCHLIFEDHIYEKLDAITDEENDMLDLAYGLTDRSRLGCQICLTKSFDNMTVRVPETVADARQSIDVGKTS	0.0868	0.149
MAAAGGARLLRAASAVLGGPAGRWLHHAGSRAGSSGLLRNRGPGGSAEASRSLSVSARARSSSEDKITVHFINRDGETLTTKGKVGDSLLDVVVENNLDIDGFGACEGTLACSTCHLIFEDHIYEKLDAITDEENDMLDLAYGLTDRSRLGCQICLTKSGDNMTVRVPETVADARQSIDVGKTS	0.381	0.247
MAAAGGARLLRAASAVLGGPAGRWLHHAGSRAGSSGLLRNRGPGGSAEASRSLSVSARARSSSEDKITVHFINRDGETLTTKGKVGDSLLDVVVENNLDIDGFGACEGTLACSTCHLIFEDHIYEKLDAITDEENDMLDLAYGLTDRSRLGCQICLTKSHDNMTVRVPETVADARQSIDVGKTS	-0.251	0.0298
MAAAGGARLLRAASAVLGGPAGRWLHHAGSRAGSSGLLRNRGPGGSAEASRSLSVSARARSSSEDKITVHFINRDGETLTTKGKVGDSLLDVVVENNLDIDGFGACEGTLACSTCHLIFEDHIYEKLDAITDEENDMLDLAYGLTDRSRLGCQICLTKSIDNMTVRVPETVADARQSIDVGKTS	0.353	0.63
MAAAGGARLLRAASAVLGGPAGRWLHHAGSRAGSSGLLRNRGPGGSAEASRSLSVSARARSSSEDKITVHFINRDGETLTTKGKVGDSLLDVVVENNLDIDGFGACEGTLACSTCHLIFEDHIYEKLDAITDEENDMLDLAYGLTDRSRLGCQICLTKSKDNMTVRVPETVADARQSIDVGKTS	-0.0408	1.28
MAAAGGARLLRAASAVLGGPAGRWLHHAGSRAGSSGLLRNRGPGGSAEASRSLSVSARARSSSEDKITVHFINRDGETLTTKGKVGDSLLDVVVENNLDIDGFGACEGTLACSTCHLIFEDHIYEKLDAITDEENDMLDLAYGLTDRSRLGCQICLTKSLDNMTVRVPETVADARQSIDVGKTS	-0.304	
MAAAGGARLLRAASAVLGGPAGRWLHHAGSRAGSSGLLRNRGPGGSAEASRSLSVSARARSSSEDKITVHFINRDGETLTTKGKVGDSLLDVVVENNLDIDGFGACEGTLACSTCHLIFEDHIYEKLDAITDEENDMLDLAYGLTDRSRLGCQICLTKSNDNMTVRVPETVADARQSIDVGKTS	0.245	-0.0466
MAAAGGARLLRAASAVLGGPAGRWLHHAGSRAGSSGLLRNRGPGGSAEASRSLSVSARARSSSEDKITVHFINRDGETLTTKGKVGDSLLDVVVENNLDIDGFGACEGTLACSTCHLIFEDHIYEKLDAITDEENDMLDLAYGLTDRSRLGCQICLTKSPDNMTVRVPETVADARQSIDVGKTS	1.06	1.11
MAAAGGARLLRAASAVLGGPAGRWLHHAGSRAGSSGLLRNRGPGGSAEASRSLSVSARARSSSEDKITVHFINRDGETLTTKGKVGDSLLDVVVENNLDIDGFGACEGTLACSTCHLIFEDHIYEKLDAITDEENDMLDLAYGLTDRSRLGCQICLTKSQDNMTVRVPETVADARQSIDVGKTS	0.0622	0.682
MAAAGGARLLRAASAVLGGPAGRWLHHAGSRAGSSGLLRNRGPGGSAEASRSLSVSARARSSSEDKITVHFINRDGETLTTKGKVGDSLLDVVVENNLDIDGFGACEGTLACSTCHLIFEDHIYEKLDAITDEENDMLDLAYGLTDRSRLGCQICLTKSRDNMTVRVPETVADARQSIDVGKTS	0.249	0.049
